Experiment [1] addresses SKOv-3細胞 (卵巣癌細胞株) の細胞表面抗原. Kind of experiment: phage recovery: 1x10^7 phage + 1x10^7 SKOv-3 cells, 4C 4 h, 3 spins through solution (2) Diphenyl Ether:1.1.1-Trichloroethane:Hexane=44:27:33; colonies counted.
Experiment [2] deals with SKOv-3細胞 (卵巣癌細胞株) の細胞表面抗原. Kind of experiment: phage recovery: 1x10^7 phage + 1x10^7 SKOv-3 cells, 4C 4 h, 3 spins through solution (1) 1%BSA-MEM; colonies counted.
In experiment [3] the target is SKOv-3細胞 (卵巣癌細胞株) の細胞表面抗原. As to the kind of experiment: phage recovery: 1x10^7 phage + 1x10^7 SKOv-3 cells, 4C 4 h, 3 spins through solution (3) Isopropyl Ether:1.1.1-Trichloroethane:Hexane=20:50:30; colonies counted.
Experiment [4] concerns the target SKOv-3細胞 (卵巣癌細胞株) の細胞表面抗原. Kind of experiment: phage recovery: 1x10^7 phage + 1x10^7 SKOv-3 cells, 3 spins through solution (2) Ficoll-Paque diluted 4-fold in PBS; colonies counted.
For experiment [5], the target named is SKOv-3細胞 (卵巣癌細胞株) の細胞表面抗原. Kind of experiment: phage recovery: 1x10^7 phage + 1x10^7 SKOv-3 cells, 3 spins through solution (1) 1%BSA-MEM; colonies counted.
The target in experiment [6] is SKOv-3膜タンパク (可溶性分画、ダイナビーズ結合). Kind of experiment: phage recovery: Dynabeads with 10 ug SKOv-3 membrane protein + 1x10^8 cfu phage.
For experiment [7], the target named is SKOv-3膜タンパク (可溶性分画、ダイナビーズ結合). As to the kind of experiment: phage recovery on SKOv-3 membrane protein beads with 400 ug free HeLa membrane protein present.
Experiment [8] deals with SKOv-3膜タンパク (可溶性分画、ダイナビーズ結合). Kind of experiment: phage recovery on SKOv-3 membrane protein beads with 400 ug free SKOv-3 membrane protein as competitor.
For experiment [9], the target named is SKOv-3膜タンパク (可溶性分画、ダイナビーズ結合). As to the kind of experiment: phage recovery on SKOv-3 membrane protein beads with 400 ug free SKOv-3 membrane protein against recovery without it.

With “pAALSC3-D1.3HL 抗HEL(hen egg lysozyme)抗体ファージ (scFv)”, the 回収されたファージの数 in [1] was 176 ファージ数; in experiment [2] it was 308 ファージ数; in experiment [3], 198 ファージ数; in experiment [4], 1040 ファージ数; in experiment [5], 1040 ファージ数. Also, in [6], the 回収されたファージ (cfu) stood at 11 cfu.

B1: クローン126 (015-126 pIII:抗HER2抗体、ファージpIII融合scFv型抗体) (scFv, part only; not given: CL and pIII fusion parts, part only)
scFv, part: QVQLVQSGAEVKKPGESLKISCKGSGYSFTSYWIGWVRQMPGKGLEWMGIIYPGDSDTRYSPSFQGQVTISADKSISTAYLQWSSLKASDTAMYYCARLTLSYSSSWFDYWGQGTLVTVSSQTVVTQEPSFSVSPGGTVTLTCGLSSGSVSTSYYPSWYQQTPGQAPRTLIYSTNTRSSGVPDRFSGSILGNKAALTITGAQADDESDYYCVLYMGSGISVFGGGTKLTVL
Take B1: the figures for the 回収されたファージ (cfu) in experiment [7], in [8] and in experiment [6] were 50000 cfu, 2200 cfu and 87000 cfu, respectively. Moreover, in experiment [9], the 回収の変化 (遊離SKOv-3膜タンパク共存 / 非共存) turned out to be 0.025 fold.

(Values after patent publication JP2005185281A.)
